From patent US20170107294A1, “ANTI-CD14 ANTIBODIES AND USES THEREOF” (Nordlandssykehuset HF, priority 2014, published 2017)

T1: porcine CD14 (Sus scrofa, UniProt F6PST4)
T1 sequence (F6PST4 21-373): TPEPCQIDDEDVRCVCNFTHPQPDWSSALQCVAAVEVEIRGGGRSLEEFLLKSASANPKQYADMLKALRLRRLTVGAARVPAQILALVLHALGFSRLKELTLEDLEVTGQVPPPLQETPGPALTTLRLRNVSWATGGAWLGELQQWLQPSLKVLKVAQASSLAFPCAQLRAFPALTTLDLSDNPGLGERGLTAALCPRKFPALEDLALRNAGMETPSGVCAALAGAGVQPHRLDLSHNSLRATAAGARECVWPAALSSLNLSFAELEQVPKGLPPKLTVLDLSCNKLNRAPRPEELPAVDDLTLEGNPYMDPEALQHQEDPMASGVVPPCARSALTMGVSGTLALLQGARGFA


Experiments:
porcine whole blood [1] = assay: Whole blood ex vivo model of inflammation, E. coli-induced cytokine release in porcine blood; format: cell-based; details: heat-inactivated E. coli
Protocol: (§1) The whole blood model has been described in detail previously (36). Fresh human venous or porcine arterial blood was drawn directly into tubes containing the anticoagulant lepirudin (Pharmion) at a final concentration of 50 mg/ml. In 1.8-ml Cryo Tube vials (Nunc, Roskilde, Denmark), the blood was preincubated with up to 20 mg/ml anti-human CD14 (r18D11 or 18D11), or 50 mg/ml anti-porcine CD14 (rMil2 or Mil2) at 37° C. for 10 min prior to an additional 2-h incubation in the presence of 100 ng/ml ultrapure LPS from Escherichia coli 0111:B4 (InvivoGen, San Diego, Calif.) for human blood or 1 3 105/ml heat-inactivated E. coli (strain LE392, ATCC33572) for porcine blood. As negative controls, PBS with MgCl2 and CaCl2 (Sigma-Aldrich) and isotype controls were used. Adverse effects were tested using nonactivated whole blood samples. After the addition of 10 mM (human) or 20 mM (porcine) EDTA, plasma was gained by 15 min centrifugation at 3220 3 g and 4° C. Levels of TNF, IL-6, and IL-1b in human plasma were determined using Bioplex technology (Bio-Rad Laboratories AB). Levels of TNF, IL-1b, and IL-8 in porcine plasma were determined using ELISA (Quantikine, R&D Systems, Minneapolis, Minn.). Platelet count was quantified by impedance using a CELL-DYN Sapphire hematology analyzer (Abbott Laboratories, Abbott Park, Ill.).

porcine whole blood [2] = assay: Adverse (IgG-Fc mediated) effects in nonactivated porcine whole blood; format: cell-based; details: absence of inflammatory stimuli; for spontaneous IL-8 release: 50 mg/ml; for platelet counts / platelet aggregation: up to 71.4 mg/ml
Protocol: as §1

porcine whole blood [3] = assay: rMil2 combined with C5 inhibitor OmCI: cytokine production in porcine whole blood ex vivo; format: cell-based; details: E. coli-incubated porcine whole blood
Protocol: as §1
Whole blood was incubated with 1 3 106 E. coli per milliliter for 2 h at 37° C. in the absence or presence of inhibitors and controls. TNF, IL-1b, and IL-8 blood was analyzed as described above.

[4] = set-up: species or system Norwegian domestic piglets (Sus scrofa domesticus); details: in vivo, iv; for heart rate (effect in words): 0.32 mg/kg
Protocol: (§2) In vivo application of anti-porcine CD14 Abs Norwegian domestic piglets (Sus scrofa domesticus, outbred stock) with a weight of 2.2 kg were isolated at the day of intervention. Anesthesia was induced with 5% sevoflurane in a mixture of air and oxygen until sleep. After establishment of an i.v. line, the piglets received fentanyl (15-20 mg/kg) were tracheotomized in the supine position, and a microcuffed endotracheal tube from Kimberly-Clark (Roswell, GA) with inner diameter of 4 mm was inserted. Maintenance anesthesia was provided with an infusion of fentanyl (50 mg/kg/h, and isoflurane 1-2% in oxygen-enriched air administered from a Leon plus ventilator from Heinen and Loevenstein (Bad Ems, Germany). An artery line was inserted in the right or left carotid artery for blood sampling during the experiments and for continuous measurement of mean artery pressure. The piglets were monitored with electrocardiography and pulse oximetry. Ventilator settings were adjusted to maintain 7.40 pH and oxygen saturation above 96%. Hemodynamic parameters were collected using ICUpilot software, CMA Microdialysis (Stockholm, Sweden) every 30 s. To compensate for hydration needs, the animals received a background infusion of isotonic sodium glucose solution, Salidex (Braun Medical A/S, Vestskogen, Norway) at 10 ml/kg/h. To compare the effect of the Mil2 and the rMil2 on healthy piglets, increasing amounts of a stock solution of 1 mg/ml rMil2 or Mil2 (batch 1106) were injected i.v. into two piglets at indicated times to a maximum dose of 5.36 mg/kg, and arterial blood samples were collected, in tubes containing the anticoagulants EDTA or citrate. To investigate the biological effect of rMIL2 on the inflammatory response, two piglets underwent the E. coli sepsis regimen as described previously (17). One control piglet was gives saline, and one piglet was given a bolus dose of 5 mg/kg rMil2 before infusion of the bacteria.

[5] = test system: E. coli-induced cytokine response; assay: In vivo E. coli sepsis regimen in piglets, cytokine response; set-up: species or system Norwegian domestic piglets (Sus scrofa domesticus); details: bolus 5 mg/kg before i.v. E. coli; vs saline control piglet
Protocol: as §2

porcine CD14 [6] = biological target: T1, porcine CD14; assay: Leukocyte CD14 expression before and after rMil2 bolus in a piglet, flow cytometry; format: in vivo, Norwegian domestic piglets (Sus scrofa domesticus); set-up: endogenous in cells; details: after bolus dose of 5 mg/kg
Protocol: as §2, with “To compare the effect of the Mil2 and the rMil2 on healthy piglets, increasing amounts of a stock solution of 1 mg/ml rMil2 or Mil2 (batch 1106) were injected i.v. into two piglets at indicated times to a maximum dose of 5.36 mg/kg, and arterial blood samples were collected, in tubes containing the anticoagulants EDTA or citrate. To investigate the biological effect of rMIL2 on the inflammatory response, two piglets underwent the E. coli sepsis regimen as described previously (17). One control piglet was gives saline, and one piglet was given a bolus dose of 5 mg/kg rMil2 before infusion of the bacteria.” left out

porcine CD14 [7] = biological target: T1, porcine CD14; assay: CD14 binding in flow cytometry, porcine whole blood (competition with FITC-conjugated Mil2); set-up: human monocyte and porcine granulocyte populations were selected based on the forward scatter-side scatter dot plot; endogenous in cells; host or cells: granulocytes in fresh porcine whole blood (EDTA); binding sites blocked (competition with FITC-conjugated Mil2 in binding to CD14) / direct binding to porcine granulocytes: dose or concentration left out as unconfirmed; details: for binding sites blocked (competition with FITC-conjugated Mil2 in binding to CD14): Ab, granulocytes in porcine whole blood
Protocol: Fresh human or porcine whole blood was drawn into tubes containing the anticoagulants lepirudin (Refludan; Pharmion, Copenhagen, Denmark) or EDTA, respectively. Blood samples were preincubated for 10 min with Ab, #20 mg/ml anti-human CD14 Abs r18D11, 18D11 F(ab)92 (batch 2068, lot 1383), or isotype controls raNIP and mIgG1 F(ab)92 (lot 1501), or […] anti-porcine CD14 Abs rMil2, Mil2 (lot 1106), or the isotype controls 4770 RECOMBINANT ANTI-CD14 Abs Downloaded from University of Oslo, Library of Medicine and Health Science on Jan. 24, 2014 for IgG2/4 and mIgG2b, eculizumab (Soliris) and mIgG2b (lot 1631), respectively. Endotoxin-free Dulbecco phosphate buffered saline, PBS (Sigma-Aldrich), was used for diluting the Abs. Subsequently, blood samples were incubated for another 15 min in the presence of detection Ab, 10 mg/ml 18D11 (batch 719, lot 3110) or 150 mg/ml FITC-conjugated Mil2 (batch 1107). Their binding was detected either by using a secondary PEconjugated anti-mouse IgG or through direct FITC fluorescence. Erythrocytes were lysed using FACS Lysing solution (BD Biosciences, Franklin Lakes, N.J.; human blood) or a solution of 0.16 M ammonium chloride, 10 mM sodium bicarbonate, 0.12 mM EDTA (Tritiplex III) and 0.04% (v/v) paraformaldehyde (porcine blood). In subsequent flow cytometry analyses, human monocyte and porcine granulocyte populations were selected based on the forward scatter-side scatter dot plot, and CD14 binding was recorded as mean or median fluorescence intensity, respectively. In contrast to humans, porcine CD14 is constitutively expressed on mature granulocytes (32, 33). Fluorescence intensities in the presence of the fluorescently labeled Abs only were set to 100%. Flow cytometry analyses on human samples were performed using an LSRII and FACSDiva software version 5.0.3; porcine samples were analyzed on a FACSCalibur using Cell Quest Pro version 5.2.1 for data acquisition (all from BD Biosciences).

E. coli = details: whole pig blood; cited from earlier work

Molecule | block of IL-1b release compared with Mil2 (porcine whole blood [1]) | inhibition of TNF release compared with Mil2 (porcine whole blood [1]) | spontaneous IL-8 release (porcine whole blood [2]) | platelet counts / platelet aggregation (porcine whole blood [2]) | IL-1b release (effect in words) (porcine whole blood [3]) | IL-8 release (effect in words) (porcine whole blood [3]) | TNF release (effect in words) (porcine whole blood [3]) | heart rate (effect in words) [4] | IL-1b reduction (area under the curve) [5] | IL-6 reduction (area under the curve) [5] | IL-8 reduction (area under the curve) [5] | TNF reduction (area under the curve) [5] | reduction in leukocyte CD14 expression (saturation of CD14) (porcine CD14 [6]) | binding sites blocked (competition with FITC-conjugated Mil2 in binding to CD14) (porcine CD14 [7]) | direct binding to porcine granulocytes (porcine CD14 [7]; not shown) | displacement of original clone Mil2 from CD14+ granulocytes (porcine CD14 [7]; porcine whole blood) | maximum heart rate [4] | E. coli survival (E. coli)
rMil2: recombinant anti-porcine CD14 mouse/human chimeric IgG2/4 Ab; VL SEQ ID NO:3, VH SEQ ID NO:4 (antibody, V domains shown, human IgG2/4 constant regions) VH: MGWSCIILFLVATATGVHSQVRLQQPGAELVRPGASVKLSCKASGYTFTTYWMNWVKQRPEDGLEWIGRIDPYDSETHYNQNFKDKAILTVDKSSSTAYMQLSSLTYEDSAVYYCTRKEGRQWGAYFDYWGQGTTLTVSSA VL: MGWSCIILFLVATATGVHSDIVMTQSQKFMSTSVGDRVSVTCKASQYVGTNVAWYQQKPGQSPKALIQSASYRCSGVPDRFTGSGSGTDFTLTISNVQSEDLADYFCQQYNTYVTFGGGTKLELKR | as effective as Mil2 | slightly less inhibitory | Neither IL-8 secretion nor platelet drop nor aggregation was observed | Neither IL-8 secretion nor platelet drop nor aggregation was observed | significantly reduced the production | seemed to be substantial, but did not reach statistical significance | significantly reduced | but not rMil2, caused an increase in heart rate | 89% | 88% | 100% | 71% | 94% | ~50% | saturated | effectively bound to and displaced the original clone | – | –
Mil2: mouse anti-porcine CD14 IgG2b clone Mil2 (Serotec), original murine clone (antibody, V domains shown) VH: QVRLQQPGAELVRPGASVKLSCKASGYTFTTYWMNWVKQRPEDGLEWIGRIDPYDSETHYNQNFKDKAILTVDKSSSTAYMQLSSLTYEDSAVYYCTRKEGRQWGAYFDYWGQGTTLTVSSA VL: DIVMTQSQKFMSTSVGDRVSVTCKASQYVGTNVAWYQQKPGQSPKALIQSASYRCSGVPDRFTGSGSGTDFTLTISNVQSEDLADYFCQQYNTYVTFGGGTKLELKR | – | – | strong spontaneous IL-8 release | dose-dependent drop in platelet counts | not significantly reduced | markedly enhanced the release | significantly reduced | caused an increase in heart rate | – | – | – | – | – | ~50% | – | – | ~300 beats/min | does not affect E. coli survival
